Laboratory results taken from US11021533 (dated 2021).

B1: ZIKV-195 (antibody, V domains shown)
VH: QVQVVESGGGVVQPGRSLRLSCAASGFTFSSSAMHWVRQAPGKGLEWVAVISYDGSNKYYGDSVKGRFTISRDNSKNTLYLQMHSLRAEDTAVYYCAKDRDAYNTVGYFAYYYGMDVWGQGTLVTVSS
VL: QSVLTQPPSVSEAPRQRVTISCSGSSSNIGNNAVNWYQQLPGKAPKLLIYYDDLLPSGVSDRFSGSKSGTSASLAISGLQSEDEADYYCAAWDDSLTRYVFGTGTKVTVL
B2: ZIKV-88 (antibody, V domains shown)
VH: QVQLLESGGGVVQPGRSLRLSCVASGLTFSTSAMHWVRQAPGKGLEWVAVISYDGSYKFYADSVRDQFTISRDNSKTTLYLQMDGLTPEDTAVYYCARGYNDDSSGSYWYFDLWGRGTLVTVSS
VL: QSVLTQPPSVSAAPGQKVTMSCSGSSSNIGSNFVSWYQQLPGTAPKVLIFDNNQRPSGIPDRFSGSKSGTSATLAITGLQPGDEAVYHCGTWDSSLTFAVFGGGTKLTVL
B3: ZIKV-204 (antibody, V domains shown)
VH: QVTLRESGPALLKPTQTLTLTCTFSGFSLSTNETCVSWIRQPPGKALEWLALIDWDDDQYSSTSLAARLTVSKDTSKNQVVLTMTNVAPVDTATYYCALTRPTLTAQNGDKYYNYYYGMDVWGQGTLVTVSS
VL: EIVLTQSPGTLSLSPGERATLSCRASQSVSSMYLAWYQQKRGQPPRLLIYGTFNRATGIPDRFSGSGSGTDFTLTISRLEPEDFAVYYCQQYGSSSFTFGGGTKVEIK
B4: ZIKV-190 (antibody, V domains shown)
VH: EVQLVESGGGLIQPGGSLRLSCAASGFTFSSYAMSWVRQAPGKGLEWVSAISGSGGSTYYADSVKGRFTISRDNSKNTLSLQMNSLRAEDTAVYYCARAFYYDFWTFDYWGQGTLVTVSS
VL: QSALTQPRSVSGSPGQSVTISCTGTSSDVGGYNYVSWYQQHPGKAPKLMIYAVTKRPSGVPDRFSGSKSGNTASLTISGLQAEDEADYYCCSYAGSYTYVVFGGGTKLTVL
B5: ZIKV-19 (antibody, V domains shown)
VH: QVQLVQSGPEVKKPGSSVKVSCKASGVSFNTYEISWVRQAPGQGLEWMGRIIPIFATPTYALKFQGRVTITTDESTTTGYMELSSLRSEDTAVYYCAGRPYGPGSWLPLDVWGQGTLVTVSS
VL: DIVMTQSPSSLSASVGDRVTITCRASQGISSYLAWYQQKPGKLPKLLIYAASTLQSGVPSRFSGSGSGTDFTLTISSLQPEDVAAYYCQKYDSAPFTFGPGTKVDLK

These binders were tested against ZIKV E protein ectodomain (UniProt A0A024B7W1 291-745) (assay: ELISA).
Sequence of ZIKV E protein ectodomain (A0A024B7W1 291-745): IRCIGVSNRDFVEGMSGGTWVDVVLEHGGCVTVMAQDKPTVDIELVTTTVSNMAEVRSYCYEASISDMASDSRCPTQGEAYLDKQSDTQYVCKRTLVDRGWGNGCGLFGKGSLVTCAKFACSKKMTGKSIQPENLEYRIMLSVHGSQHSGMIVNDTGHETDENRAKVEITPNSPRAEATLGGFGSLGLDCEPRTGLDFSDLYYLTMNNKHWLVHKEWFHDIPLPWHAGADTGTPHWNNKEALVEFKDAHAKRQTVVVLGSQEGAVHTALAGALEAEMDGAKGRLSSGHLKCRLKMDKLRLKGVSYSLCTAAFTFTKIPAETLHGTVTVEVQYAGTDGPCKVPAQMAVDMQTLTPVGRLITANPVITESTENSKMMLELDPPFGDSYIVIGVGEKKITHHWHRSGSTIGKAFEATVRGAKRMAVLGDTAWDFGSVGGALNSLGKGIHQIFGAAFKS

Going from B1 to B2, the EC50 falls from 0.695 µg/mL to 0.07 µg/mL (9.9-fold).

Compared with B3, B4 is 1.7-fold higher in EC50: 0.048 µg/mL for the first, 0.082 µg/mL for the second.

B5 gave an EC50 of 0.165 µg/mL.
